Test results from patent US20040241164A1 (published 2004).

Molecular target: T1, Soluble Aβ 1-40 (UniProt P05067 672-711)
T1 construct: domain: Aβ 1-40; Unaggregated, predominantly monomeric peptide flowed over captured antibody; The numbers 1-40 count on the Aβ peptide, not on the APP precursor
Assay: BIAcore SPR, alternate method: antibody captured on protein A or A/G, Aβ 1-40 in flow, 5 hour dissociation, 1:1 model with mass transfer; alternate method: antibody captured on protein A or A/G, 5 hour dissociation
Protocol: Protein A or protein A/G is immobilized via amine coupling to flow cells 1 and 2 of a B1 or CM5 sensor chip (BIAcore). The test antibody is then captured in flow cell 2 at desired levels (usually a 10-60 second injection of antibody) and 5 minutes is allowed for the antibody to stabilize. […] Each concentration is injected over the surface for 5 minutes at a flow rate of 50 μL/min. […] Aβ 1-40 and antibody are then eluted from both flow cells with a 40 second injection of glycine (pH 1.5). The signal is allowed to stabilize for 2 minutes before the next cycle. The data from flow cell 1 is subtracted from flow cell 2 to account for any bulk shifts due to buffer differences or non-specific binding to the sensor chip or protein A. The various concentrations are injected randomly and each concentration is run in duplicate. Two 0 nM runs are used to control for any dissociation of antibody from the protein A or A/G capture surface. The data is analyzed using the Biaevalution software. A 1:1 model with mass transfer and a local Rmax is used as the best fit for the data.

- Kd: 0.4 nM
B1: humanized 266 antibody (antibody, human IgG1, kappa, V domains shown)
VH: EVQLVESGGGLVQPGGSLRLSCAASGFTFSRYSMSWVRQAPGKGLELVAQINSVGNSTYYPDTVKGRFTISRDNAKNTLYLQMNSLRAEDTAVYYCASGDYWGQGTLVTVSS
VL: DVVMTQSPLSLPVTLGQPASISCRSSQSLIYSDGNAYLHWFLQKPGQSPRLLIYKVSNRFSGVPDRFSGSGSGTDFTLKISRVEAEDVGVYYCSQSTHVPWTFGQGTKVEIKR
